B1: S100A12 incubated with 400 µM MGO (natural protein, UniProt P80511 1-92, looked up)
chain: MTKLEEHLEGIVNIFHQYSVRKGHFDTLSKGELKQLLTKELANTIKNIKDKAVIDEIFQGLDANQDEQVDFQEFISLVAIALKAAHYHTHKE
modifications: hydroimidazolone, MGO-hemiaminal/CEA, argpyrimidine and tetrahydropyrimidine at R21; CEL at K3, K30, K34, K39, K46, K49, K51, K83, K91; carboxyethylation of the N-terminus (partial)
notes: S100A12 as in m1, chemically modified with methylglyoxal; Heterogeneous mixture; by SEC a minor part was not present as hexamer; also called MGO-modified S100A12 (400 µM MGO); source: E. coli One Shot BL21 (DE3), purified; incubated with 400 µM methylglyoxal at 37 °C for 1, 3 or 7 days, excess reagent removed by ultrafiltration
B2: S100A12 incubated with 4 mM MGO (natural protein, UniProt P80511 1-92, looked up)
chain: B1 chain
modifications: hydroimidazolone, MGO-hemiaminal/CEA, argpyrimidine and tetrahydropyrimidine at R21; CEL at K3, K30, K34, K39, K46, K49, K51, K83, K91; carboxyethylation of the N-terminus; a +126 Da modification not assigned to a residue
notes: S100A12 as in m1, chemically modified with methylglyoxal; no signal of the native protein left in MALDI-TOF-MS; By SEC only a small part was hexamer; also called MGO-modified S100A12 (4 mM MGO); MGO-S100A12; source: E. coli One Shot BL21 (DE3), purified; incubated with 4 mM methylglyoxal at 37 °C for 1, 3 or 7 days, excess reagent removed by ultrafiltration
B3: recombinant S100A12 (natural protein, UniProt P80511 1-92, looked up)
chain: B1 chain
notes: N-terminal methionine only partially removed (M1S100A12 predominant); Mixture of chains with and without M1; The controls incubated without reagent are written as this molecule; also called M1S100A12; unincubated negative control; source: E. coli One Shot BL21 (DE3), purified (chitin column, on-column intein cleavage with DTT, dialysis, NAP-5)
B4: CEL-S100A12 prepared with 3 mM pyruvate (natural protein, UniProt P80511 1-92, looked up)
chain: B1 chain
modifications: N-epsilon-carboxyethyllysine (CEL) on all lysine residues; carboxyethylated N-terminus; no arginine modifications (CEL rate equal to or higher than in all MGO-modified samples)
notes: S100A12 as in m1, CEL-modified by reductive amination; Heterogeneous mixture; the extent of modification is not quantified; also called CEL-modified S100A12 (3 mM pyruvate); source: E. coli One Shot BL21 (DE3), purified; reductive amination with 3 mM pyruvate and NaBH3CN at 25 °C for 16 h, excess reagent removed by ultrafiltration
B5: CEL-S100A12 prepared with 30 mM pyruvate (natural protein, UniProt P80511 1-92, looked up)
chain: B1 chain
modifications: N-epsilon-carboxyethyllysine (CEL) on all lysine residues; carboxyethylated N-terminus; no arginine modifications (highest modification rate)
notes: S100A12 as in m1, CEL-modified by reductive amination; Heterogeneous mixture; the extent of modification is not quantified; also called CEL-modified S100A12 (30 mM pyruvate); CEL-S100A12 at the highest modification rate; source: E. coli One Shot BL21 (DE3), purified; reductive amination with 30 mM pyruvate and NaBH3CN at 25 °C for 16 h, excess reagent removed by ultrafiltration
B6: S100A12 incubated with 40 µM MGO (natural protein, UniProt P80511 1-92, looked up)
chain: B1 chain
modifications: hydroimidazolone, MGO-hemiaminal/CEA, argpyrimidine and tetrahydropyrimidine at R21; CEL at K3, K30, K34, K39, K49, K83, K91; carboxyethylation of the N-terminus (partial)
notes: S100A12 as in m1, chemically modified with methylglyoxal; Heterogeneous mixture of modified and unmodified chains; also called MGO-modified S100A12 (40 µM MGO); source: E. coli One Shot BL21 (DE3), purified; incubated with 40 µM methylglyoxal at 37 °C for 1, 3 or 7 days, excess reagent removed by ultrafiltration
B7: CEL-S100A12 prepared with 300 µM pyruvate (natural protein, UniProt P80511 1-92, looked up)
chain: B1 chain
modifications: N-epsilon-carboxyethyllysine (CEL) on all lysine residues; carboxyethylated N-terminus; no arginine modifications (partial, modification rate rises with pyruvate)
notes: S100A12 as in m1, CEL-modified by reductive amination; Heterogeneous mixture; the extent of modification is not quantified; also called CEL-modified S100A12 (300 µM pyruvate); source: E. coli One Shot BL21 (DE3), purified; reductive amination with 300 µM pyruvate and NaBH3CN at 25 °C for 16 h, excess reagent removed by ultrafiltration
B8: S100A12 incubated with 4 µM MGO (natural protein, UniProt P80511 1-92, looked up)
chain: B1 chain
modifications: hydroimidazolone (+54 Da) and MGO-hemiaminal/CEA (+72 Da) at R21 (partial, low modification degree)
notes: S100A12 as in m1, chemically modified with methylglyoxal; Heterogeneous mixture of modified and unmodified chains; also called MGO-modified S100A12 (4 µM MGO); source: E. coli One Shot BL21 (DE3), purified; incubated with 4 µM methylglyoxal at 37 °C for 1, 3 or 7 days, excess reagent removed by ultrafiltration
B9: CEL-S100A12 prepared with 600 µM pyruvate (natural protein, UniProt P80511 1-92, looked up)
chain: B1 chain
modifications: N-epsilon-carboxyethyllysine (CEL) on all lysine residues; carboxyethylated N-terminus; no arginine modifications (partial, modification rate rises with pyruvate)
notes: S100A12 as in m1, CEL-modified by reductive amination; Heterogeneous mixture; the extent of modification is not quantified; also called CEL-modified S100A12 (600 µM pyruvate); source: E. coli One Shot BL21 (DE3), purified; reductive amination with 600 µM pyruvate and NaBH3CN at 25 °C for 16 h, excess reagent removed by ultrafiltration
B10: CEL-S100A12 prepared with 15 mM pyruvate (natural protein, UniProt P80511 1-92, looked up)
chain: B1 chain
modifications: N-epsilon-carboxyethyllysine (CEL) on all lysine residues; carboxyethylated N-terminus; no arginine modifications (partial, modification rate rises with pyruvate)
notes: S100A12 as in m1, CEL-modified by reductive amination; Heterogeneous mixture; the extent of modification is not quantified; also called CEL-modified S100A12 (15 mM pyruvate); source: E. coli One Shot BL21 (DE3), purified; reductive amination with 15 mM pyruvate and NaBH3CN at 25 °C for 16 h, excess reagent removed by ultrafiltration

Molecular target: the molecule itself
Assay: SEC; Superdex 75 10/300 GL, 10 mM Tris-HCl, 150 mM NaCl, 500 µM CaCl2, 10 µM ZnCl2, pH 7.4, 0.6 mL/min; calibrated with bovine serum albumin, carbonic anhydrase, cytochrome C and aprotinin
Settings: not given

Binder	stoichiometry N
B1	6
B2	6
B3	6

Molecular target: T1, recombinant human RAGE Fc chimera (human, UniProt Q15109 23-342)
T1 construct: receptor for advanced glycation end-products (RAGE), human; No catalogue number is printed; also called receptor for advanced glycation end-products; recombinant RAGE; source: bought: R&D Systems, from a mouse myeloma cell line
Assay: SPR; Biacore X100, 25 °C, 30 µL/min; 7200 RU of RAGE Fc chimera amine-coupled to a CM5 chip; S100A12 samples injected (180 s association, 180 s dissociation); HBS-P (10 mM HEPES, 150 mM NaCl, 0.05% surfactant 20, pH 7.4) with 500 µM CaCl2 and 10 µM ZnCl2; reference cell subtracted; response given relative to the unincubated negative control
Settings: both partners purified

T1 sequence (Q15109 23-342, change not shown): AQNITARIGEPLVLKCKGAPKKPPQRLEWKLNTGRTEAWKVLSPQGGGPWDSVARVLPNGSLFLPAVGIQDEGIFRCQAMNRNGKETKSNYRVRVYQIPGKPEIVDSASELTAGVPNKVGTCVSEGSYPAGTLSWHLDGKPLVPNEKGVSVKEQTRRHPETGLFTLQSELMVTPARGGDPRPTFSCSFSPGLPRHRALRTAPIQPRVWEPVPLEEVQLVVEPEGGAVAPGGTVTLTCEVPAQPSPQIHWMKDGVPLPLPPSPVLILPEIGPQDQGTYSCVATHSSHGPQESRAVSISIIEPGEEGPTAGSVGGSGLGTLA

Binder	percent binding (of the control)
B4	80.9%
B5	34%

Molecular target: the molecule itself
Assay: SEC; data not shown; Superdex 75 10/300 GL, 10 mM Tris-HCl, 150 mM NaCl, 500 µM CaCl2, 10 µM ZnCl2, pH 7.4
Settings: not given

Binder	stoichiometry N
B4	6
B6	6
B7	6
B8	6
B9	6
B10	6
B5	6
